In article PMC9470112 (2020):

T1: EBV LMP2 (latent membrane protein 2) peptide on HLA-A*01:01 (human)
T1 peptide: ESEERPPTPY


Biological target: T1, EBV LMP2 (latent membrane protein 2) …
Test: multimer staining

Row | Binder | binding result
1 | EBV-LMP2^ESE-specific TCR from donor A (TCR) alpha TRAV12 TRAJ3 CDR3: CVVTGYSSASKIIF beta TRBV6-3 TRBJ2-1 CDR3: CASSWEGQYNEQFF | recognises
2 | TCR-B1 (TCR) alpha TRAV12 TRAJ3 CDR3: CVVTGYSSASKIIF beta TRBV6-3 TRBJ2-1 CDR3: CASSSEGQFNEQFF | recognises
3 | TCR-C1 (TCR) alpha TRAV30 TRAJ45 CDR3: CGTGSGGGADGLTF beta TRBV6-3 TRBJ2-1 CDR3: CASSPEGVFNEQFF | recognises
4 | EBV-LMP2^ESE-specific TCR C^2 from donor C (TCR) alpha TRAV30 TRAJ45 CDR3: CGTEDGRGGADGLTF beta TRBV6-3 TRBJ2-1 CDR3: CASSYGIYEQFF | recognises
5 | EBV-LMP2^ESE-specific TCR from donor E (TCR) alpha TRAV26 TRAJ23 CDR3: CIVSGGKLIF beta TRBV12-3/4 TRBJ2-5 CDR3: CASSSSWTSGSGETQYF | recognises
